Test results from patent US20250270315A1 (ELPISCIENCE SUZHOU BIOPHARMA, published 2025).
Like-named read-outs stand apart in the source and are kept apart here.

Tests used:
[1] = biological target: T1, full length human SIRPα v1 with a small beta-gal fragment (ED) fused to its C-terminal, expressed in K562 … (human, UniProt P78324 31-504); assay: cell-based or functional assay
[2] = biological target: T1, full length human SIRPα v1 with a small …; assay: cell-based or functional assay; remark: listed apart in the source
[3] = biological target: T2, human SIRPγ stably expressed on 293F cells (human, UniProt Q9P1W8 29-387); assay: FACS, 293F-hSIRPγ cells
T2 construct: whole, on cells
Description: (§1) All the humanized antibodies as tested were confirmed to retain the similar activity as the parental antibody of 025c to bind to SIRP family members.

[4] = biological target: Human SIRPα v1 (antigen of the Octet and Biacore affinity measurements) (human, UniProt P78324 31-370, limits assumed); assay: SPR (Biacore), 1:1 binding model
Method: The humanized antibodies were characterized for binding affinity against human SIRPα v1, human SIRPα v2 using Surface Plasmon Resonance technology (Biacore system). The association and dissociation curves were fit with 1:1 binding model, and the Ka/Kd/KD values for each antibody were calculated.

[5] = biological target: T3, human SIRPβ ECD recombinant protein (6×His tagged) (human, UniProt O00241 30-371); assay: ELISA, recombinant human SIRPβ ECD
T3 construct: extracellular domain; Bought from Sino Biological; also called hSIRPβ ECD; not shown: 6×His tag
Description: Binding activity of the purified chimeric antibodies against SIRPβ and SIRPBI was detected by ELISA assay using recombinant proteins of human SIRPβ ECD (FIGS. 3A and 3B), human SIRPBI ECD (FIGS. 3D and 3E) and FACS assay using CHOK 1 cells stably expressing human SIRPB (FIG. 3C).

[6] = biological target: T4, C57BL/6 mouse SIRPα ECD recombinant protein (6×His tagged) (C57BL/6 mouse, UniProt P97797 32-373); assay: ELISA, recombinant C57BL/6 mouse SIRPα ECD
T4 construct: extracellular domain; Bought from Biointron; not shown: 6×His tag
T4 sequence (looked up): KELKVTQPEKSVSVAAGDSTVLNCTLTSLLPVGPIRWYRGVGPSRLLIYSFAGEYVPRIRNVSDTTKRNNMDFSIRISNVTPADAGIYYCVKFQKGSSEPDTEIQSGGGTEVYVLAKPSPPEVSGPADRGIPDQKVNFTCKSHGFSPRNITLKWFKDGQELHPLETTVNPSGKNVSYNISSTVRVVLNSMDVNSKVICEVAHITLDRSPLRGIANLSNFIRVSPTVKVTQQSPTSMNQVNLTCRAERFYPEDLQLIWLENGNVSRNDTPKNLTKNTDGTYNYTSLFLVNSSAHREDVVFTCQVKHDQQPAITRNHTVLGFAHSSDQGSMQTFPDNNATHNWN
Description: Species cross reactivity of purified chimeric antibodies was detected by ELISA assay using recombinant protein of C57BL/6 mouse SIRPα ECD (FIG. 5A) and FACS assay using CHOK 1 cells stably expressing cyno SIRPα (FIGS. 5B and 5C). All antibodies as tested bind to cyno SIRPα at different levels but have no species cross reactivity against C57BL/6 mouse SIRPα.

[7] = biological target: T5, human SIRPα v1 ECD recombinant protein (tag not given) (human, UniProt P78324 31-373); assay: competitive ELISA, mFc-CD47 ECD on coated SIRPα v1 ECD
T5 construct: extracellular domain; also called biotin labeled soluble human SIRPα v1 ECD recombinant protein; ELISA microplate coated human SIRPα v1 ECD
Method: (§2) Competitive ELISA assay was used to determine whether the purified chimeric antibodies can block CD47 and SIRPα interaction. Briefly, antibody and mFc tagged human CD47 ECD recombinant protein were co-incubated with ELISA microplate coated human SIRPα v1 ECD (FIGS. 6A and 6B) or human SIRPα v2 ECD (FIGS. 7A and 7B) recombinant protein. After washing, HRP labeled anti-mouse Fc 2nd antibody (Sigma) was added and incubated at 37° C. for 1 hour. Then, 100 μl/well of TMB solution (Biotechnology) was added. After incubation for 15 minutes at room temperature, the reaction was stopped by the addition of 50 μl of 1N HCl. OD 450 nm was read. Blocking ratio was determined by blockade of human CD47 ECD recombinant protein binding to ELISA microplate coated human SIRPα ECD recombinant protein. Other than 005, all antibodies as tested can block interaction between human CD47 and different human SIRPα variants.
(§3) The humanized antibodies were tested for the ability to block CD47 and SIRPα interaction with competitive ELISA assay (refer to methods described in Example 4.2.3.).

[8] = biological target: T6, human SIRPα v2 ECD recombinant protein (tag not given) (human); assay: competitive ELISA, mFc-CD47 ECD on coated SIRPα v2 ECD
T6 construct: extracellular domain; also called ELISA microplate coated human SIRPα v2 ECD
Method: as §2, §3

[9] = biological target: T7, human SIRPβ stably expressed on CHOK1 cells (human, UniProt O00241 30-398); assay: FACS, CHOK1 cells stably expressing human SIRPβ
T7 construct: whole, on cells; also called CHOK1-human SIRPB; CHOK1-hSIRPβ
Description: as §1

[10] = biological target: T8, mFc tagged human SIRPα v1 ECD recombinant protein (human, UniProt P78324 31-373); assay: competitive ELISA binning, mFc-SIRPα v1 ECD; competitor 025c
T8 construct: extracellular domain; Bought from Biointron; not shown: mouse IgG Fc (mFc) tag
Method: (§4) Competitive ELISA assay was used for epitope binning of purified chimeric antibodies. Briefly excessive competitor antibody and mFc tagged human SIRPα v1 ECD recombinant protein were co-incubated with ELISA microplate coated antibody. After washing, HRP labeled anti-mouse Fc 2nd antibody (Sigma) was added and incubated at 37° C. for 1 hour. Then, 100 μl/well of TMB solution (Biotechnology) was added. After incubation for 15 minutes at room temperature, the reaction was stopped by the addition of 50 μl of 1N HCl. OD 450 nm was read. Competition ratio was calculated. The antibodies that can compete each other for binding to SIRPα may have related binding epitopes.

[11] = biological target: T8, mFc tagged human SIRPα v1 ECD …; assay: competitive ELISA binning, mFc-SIRPα v1 ECD; competitor hu1H9G4
Method: as §4

Sequence of Human SIRPα v1 (antigen of the Octet and Biacore affinity measurements) (P78324 31-370 limits assumed): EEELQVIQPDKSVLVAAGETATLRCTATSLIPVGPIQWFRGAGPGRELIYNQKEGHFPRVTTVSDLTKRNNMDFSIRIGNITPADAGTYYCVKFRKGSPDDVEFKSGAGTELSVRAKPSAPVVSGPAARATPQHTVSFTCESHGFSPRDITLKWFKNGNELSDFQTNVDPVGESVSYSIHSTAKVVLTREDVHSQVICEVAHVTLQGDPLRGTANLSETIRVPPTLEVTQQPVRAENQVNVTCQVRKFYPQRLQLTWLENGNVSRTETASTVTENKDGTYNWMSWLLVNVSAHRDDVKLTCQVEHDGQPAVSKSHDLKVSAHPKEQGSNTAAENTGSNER
T1 sequence (P78324 31-504): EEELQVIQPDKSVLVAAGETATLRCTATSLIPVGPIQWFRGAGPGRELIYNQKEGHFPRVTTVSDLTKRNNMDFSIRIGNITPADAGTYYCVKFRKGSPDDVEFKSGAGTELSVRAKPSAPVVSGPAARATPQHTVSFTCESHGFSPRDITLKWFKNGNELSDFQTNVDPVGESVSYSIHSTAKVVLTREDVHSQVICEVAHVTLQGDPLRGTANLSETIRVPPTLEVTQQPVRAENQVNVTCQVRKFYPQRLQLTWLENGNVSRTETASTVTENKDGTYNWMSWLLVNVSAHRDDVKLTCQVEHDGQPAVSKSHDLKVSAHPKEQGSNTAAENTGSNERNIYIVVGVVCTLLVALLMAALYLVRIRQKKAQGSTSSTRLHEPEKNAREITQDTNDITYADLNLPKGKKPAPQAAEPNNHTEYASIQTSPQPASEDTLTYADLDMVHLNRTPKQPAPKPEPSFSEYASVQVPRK
T2 sequence (Q9P1W8 29-387): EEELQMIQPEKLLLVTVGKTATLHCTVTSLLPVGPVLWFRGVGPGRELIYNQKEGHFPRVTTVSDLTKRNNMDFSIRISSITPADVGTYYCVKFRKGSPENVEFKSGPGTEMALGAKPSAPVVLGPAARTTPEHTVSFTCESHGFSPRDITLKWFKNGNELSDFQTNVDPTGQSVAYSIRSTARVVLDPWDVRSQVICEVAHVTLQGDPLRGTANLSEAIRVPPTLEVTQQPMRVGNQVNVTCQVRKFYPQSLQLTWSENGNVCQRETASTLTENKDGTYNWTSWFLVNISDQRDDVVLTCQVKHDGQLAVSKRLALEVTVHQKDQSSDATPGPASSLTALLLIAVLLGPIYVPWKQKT
T5 sequence (P78324 31-373): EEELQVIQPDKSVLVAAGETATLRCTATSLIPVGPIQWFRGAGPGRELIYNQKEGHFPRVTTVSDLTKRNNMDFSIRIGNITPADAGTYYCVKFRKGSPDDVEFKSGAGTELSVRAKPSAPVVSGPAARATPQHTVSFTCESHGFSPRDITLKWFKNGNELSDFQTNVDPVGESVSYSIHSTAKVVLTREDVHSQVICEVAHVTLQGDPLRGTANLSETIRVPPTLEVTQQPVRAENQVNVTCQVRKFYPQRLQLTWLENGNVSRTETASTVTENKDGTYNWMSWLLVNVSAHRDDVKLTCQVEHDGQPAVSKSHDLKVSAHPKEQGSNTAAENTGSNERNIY
T8 sequence (P78324 31-373): as above
T7 sequence (O00241 30-398): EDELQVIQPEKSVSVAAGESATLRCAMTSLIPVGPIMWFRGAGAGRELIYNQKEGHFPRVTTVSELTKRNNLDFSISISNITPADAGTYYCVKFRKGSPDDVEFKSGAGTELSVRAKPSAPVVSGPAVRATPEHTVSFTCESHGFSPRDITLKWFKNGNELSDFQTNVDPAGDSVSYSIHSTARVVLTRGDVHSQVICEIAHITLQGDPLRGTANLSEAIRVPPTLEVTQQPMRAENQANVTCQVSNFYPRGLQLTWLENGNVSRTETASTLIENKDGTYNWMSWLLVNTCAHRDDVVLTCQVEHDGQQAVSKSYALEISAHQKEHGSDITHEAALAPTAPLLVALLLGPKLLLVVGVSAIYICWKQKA
T3 sequence (O00241 30-371): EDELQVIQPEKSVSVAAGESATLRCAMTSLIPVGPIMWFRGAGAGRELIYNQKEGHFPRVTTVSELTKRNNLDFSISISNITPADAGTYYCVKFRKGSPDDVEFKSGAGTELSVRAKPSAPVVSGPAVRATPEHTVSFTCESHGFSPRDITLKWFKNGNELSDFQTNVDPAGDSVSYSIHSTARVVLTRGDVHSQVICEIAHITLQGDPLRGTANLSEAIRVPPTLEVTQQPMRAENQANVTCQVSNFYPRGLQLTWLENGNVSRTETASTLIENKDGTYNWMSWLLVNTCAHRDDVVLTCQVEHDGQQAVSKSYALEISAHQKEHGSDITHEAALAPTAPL

- SHP-1 recruitment blocking, IC50 [1]: 0.28 nM
- SHP-1 recruitment blocking, TOP blocking (%) [1]: 84.5%
- SHP-1 recruitment blocking, IC50 [2]: 0.08 nM
- SHP-1 recruitment blocking, TOP blocking (%) [2]: 87%
- EC50 [3]: 0.2 nM
- TOP MFI [3]: 22800 MFI
- Kd [4]: 1.53 nM
- koff [4]: 0.000924 s⁻¹
- kon [4]: 602000 M⁻¹ s⁻¹
- EC50 (read off the curve) [5]: ~0.04 nM
- binding result [6]: no binding
- IC50 [7]: 2.03 nM
- TOP blocking (%) [7]: 97.5%
- IC50 [8]: 1.86 nM
- TOP blocking (%) [8]: 98.6%
- EC50 (read off the curve) [9]: ~0.7 nM
- % Competition [10]: 93.5%
- % Competition [11]: 15.3%
B1: 025c (antibody, V domains shown)
VH: EVQLQQSGAELVKPGASVKLSCTASGFNIKDYYMHWVKQRTEQGLEWIGRIDPEDGETKYAPKFQGKATITADTSSNTAYLQLSSLTSEDTAVYYCDRGLAYWGQGTLVTVSA
VL: QIVLTQSPAIMSASPGEKVTLTCSASSSVSSSYLYWYQQKPGSSPKLWIYSTSNLASGVPARFSGSGSGTSYSLTISSMEAEDAASYFCHQWSSYPYTFGGGTKLEIK
notes: also called chimeric antibody 025c; parental antibody of 025c
